Laboratory results: patent publication CN114907478A (MABWELL SHANGHAI BIOSCIENCE CO LTD, dated 2022)
Where a chain is given by its changes, count along the chain named.

B1: ch7C5嵌合抗体 (antibody, V domains shown)
VH: EVQLQQSGAELARPGASVKLSCKASGYTFTSYGISWVKQRTGQGLEWIGEIYPRSDNTYYNGKFKGKATLTADKSSSTAYMELRSLTSEDSAVFFCARRAFYYYGSNYYAMDYWGQGTSVTVSS
VL: DVLMTQTPLFLPVSLGDQASISCRSSQSIVHSNGDTYLEWYLRKPGQSPKLLIFKVSNRFSGVPDRFSGSGSGTDFTLKISRVEAEDLGVYYCFQGSHVPWTFGGGTKLEIK
B2: ch10B4嵌合抗体 (antibody, human IgG4, V domains shown)
VH: B1 VH with T28S, S31N, V37M, S55G, D56G, K74Q, F94Y, Y104F
VL: B1 VL with L3V, R43Q, F54Y, E110A
B3: ch4C8嵌合抗体 (antibody, human IgG4, V domains shown)
VH: EVQLVESGGGLVKIGGSLKLSCAGSGFTFSNYAMSWVRQTPEKRLEWVATITYGTTYTFYSDNVKGRFTISRDNAKNNLSLQMSHLKSEDTAMYYCTRGEYGSSFAYWGQGTLVTVSA
VL: DIVMTQSQKFMSTSVGDRVSITCKASQNVRTAVAWYQQKPGQSPKALIYLASNRHTGVPDRFTGSGSETDFTLTINNVQSEDLADYFCLQHWNYPLTFGGGTKLEIK
B4: ch3A10嵌合抗体 (antibody, human IgG4, V domains shown)
VH: EVQLQQSGAELVRPGASVKLSCTASGFNIKDDYMHWMKQRPEQGLEWIGWIDPENGETEYASKFQGKATITADTYSNTVYLQFSSLTSEDTGVYYCTIFDYWGQGTSLTVSS
VL: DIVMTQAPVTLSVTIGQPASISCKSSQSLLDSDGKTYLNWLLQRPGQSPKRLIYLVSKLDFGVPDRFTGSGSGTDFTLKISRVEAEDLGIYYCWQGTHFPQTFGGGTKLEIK
B5: ch7F1嵌合抗体 (antibody, human IgG4, V domains shown)
VH: EVQLVESGPGLVAPSQSLSITCTVSGFSLTDYAVSWIRQPPGKGLEWLGVVWGDGSTNYHSALISRLIITRDNSKRQVFLKLNSLQTDDTATYYCAKGGGGMDYWGQGTSVTVSS
VL: DIVLSQSPAILSASPGEKVTVTCRASSSVSYMHWFQQKPGSSPKPWIYATSNLASGVPVRFSGSGSGTSYSLTISRVEAEDAATYYCQHYNTNPPTWTFGGGSKLEIK
B6: ch7F10嵌合抗体 (antibody, human IgG4, V domains shown)
VH: EVKLMESGAELVKPGASVKLSCKVSGVNIKDDYMHWVKQRTEQGLEWIGRIDPEDVETKYDPKFQGKATITSDTSSNTGYLQLSSLTSEDTAVYYCARSFYSNYVNYFDQWGQGTTLTVSS
VL: DIVMTQAPKSMSMSVGERVTLSCKASENVGTYVSWFQQKPEQSPKLLIYGASNRYTGVPDRFTGSGSATDFTLTISSVQAEDLADYHCGQSYSYPYTFGGGTKLEIK

Legend:
[1] = target: T1, hLAG-3-mFc融合蛋白 (human, UniProt P18627 23-450); test: FACS competition: blocking of hLAG-3-mFc (2 ug/ml) binding to HLA on 293/rhHLA cells
T1 construct: range 1-450; no cleavage site is stated; also called hLAG-3-mFc重组蛋白; 人LAG-3-mFc重组蛋白; not shown: mouse Fc
T1 sequence (looked up): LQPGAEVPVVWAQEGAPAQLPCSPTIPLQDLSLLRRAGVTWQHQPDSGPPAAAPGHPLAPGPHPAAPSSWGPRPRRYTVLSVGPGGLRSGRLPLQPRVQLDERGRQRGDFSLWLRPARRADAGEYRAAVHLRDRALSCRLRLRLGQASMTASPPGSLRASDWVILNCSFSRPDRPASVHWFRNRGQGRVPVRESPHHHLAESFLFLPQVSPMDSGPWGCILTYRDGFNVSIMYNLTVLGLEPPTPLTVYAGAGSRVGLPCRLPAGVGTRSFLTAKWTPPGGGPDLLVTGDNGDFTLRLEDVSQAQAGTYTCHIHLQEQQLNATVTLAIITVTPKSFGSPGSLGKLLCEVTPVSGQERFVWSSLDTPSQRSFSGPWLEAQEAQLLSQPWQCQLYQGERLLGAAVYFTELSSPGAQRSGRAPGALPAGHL

[2] = target: T1, hLAG-3-mFc融合蛋白; test: BLI (ForteBio Octet QKe), antibody captured on AHC probe, hLAG-3-mFc 60 nM in solution, 1:1 fit

| Binder | IC50 [1] [mg/L] | Kd [2] [nM] |
| --- | --- | --- |
| B1 | 1.87 | 0.365 |
| B2 | 2 | 0.0884 |
| B3 | 1.28 | 0.427 |
| B4 | 3.33 | 0.128 |
| B5 | 11.5 | 5.52 |
| B6 | 1.21 | 0.117 |
